Measured values published in publication PMC10165274 (The Journal of Biological Chemistry, 2023).

Experiments:
Experiment in all cases: ITC; peptide (FEN1 800 uM, pol δ p66 550 uM, RNaseH2B 750 uM) with 33 to 38 uM individual PCNA (not trimeric rings); 25 °C
Details in all cases: both partners purified
[1] = target: T1, Proliferating cell nuclear antigen C148S variant (human, UniProt P12004 1-261, C148S)
T1 construct: PCNA, human, patient-derived variant p.Cys148Ser; untagged, made by site-directed mutagenesis of PCNA-WT in pET3c; Disease-associated natural allele (PARD); Homotrimeric ring; also called PCNA-C148S; C148S-PCNA; source: E. coli BLR-DE3, purified (S and Q HiTrap columns, Sephacryl-200 gel filtration)

[2] = target: T2, Proliferating cell nuclear antigen, wild type (human, UniProt P12004 1-261)
T2 construct: PCNA, human; untagged, expressed from the pET3c vector; Homotrimeric ring; also called PCNA-WT; PCNA; source: E. coli BLR-DE3, purified (S and Q HiTrap columns, Sephacryl-200 gel filtration)

[3] = target: T3, Proliferating cell nuclear antigen S228I variant (human, UniProt P12004 1-261, S228I)
T3 construct: PCNA, human, patient-derived variant p.Ser228Ile; expressed from the pET3c vector; Disease-associated natural allele (PARD); also called PCNA-S228I; source: E. coli BLR-DE3, purified (S and Q HiTrap columns, Sephacryl-200 gel filtration)
T3 sequence (P12004 whole entry S228I): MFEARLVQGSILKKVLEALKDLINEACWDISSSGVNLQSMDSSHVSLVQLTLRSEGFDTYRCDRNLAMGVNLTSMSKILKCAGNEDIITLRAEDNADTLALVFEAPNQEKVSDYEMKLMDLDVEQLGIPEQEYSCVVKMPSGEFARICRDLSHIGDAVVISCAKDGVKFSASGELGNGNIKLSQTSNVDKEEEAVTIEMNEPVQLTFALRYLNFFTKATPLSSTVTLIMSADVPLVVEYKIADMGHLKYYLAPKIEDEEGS

T2 sequence (P12004 whole entry): as the sequence (P12004 whole entry S228I) above, with I228S counted along it
T1 sequence (P12004 whole entry C148S): as the sequence (P12004 whole entry S228I) above, with C148S, I228S counted along it

Binder	Kd [1]	Kd [2]	Kd [3]
DKSGMKSIDTFFGVKNKKKIGKV (PIP-box peptide of RNaseH2B; free C-terminus (-OH); printed with a blank after SID; source: synthetic peptide (21st Century Biochemicals)) [RNaseH2B PIP-box peptide]	7.8 ± 0.01 µM	9.7 ± 0.3 µM	–
STQGRLDDFFKVTGSL (PIP-box peptide of Flap endonuclease 1 (FEN1); free C-terminus (-OH); source: synthetic peptide (21st Century Biochemicals)) [FEN1 PIP-box peptide]	11 ± 2 µM	11 ± 2 µM	–
KANRQVSITGFFQRK (PIP-box peptide of the p66 subunit of DNA polymerase delta; also called pol δ p66; pol δ; source: synthetic peptide (21st Century Biochemicals)) [DNA polymerase delta p66 PIP-box peptide]	2.8 ± 0.33 µM	3 ± 0.16 µM	4 ± 0.14 µM
